In patent US20230272446A1 (University of Washington, published 2023):

Biological target: the molecule itself
Test: analytical size exclusion chromatography with multi-angle light scattering (SEC-MALS); self-association (homodimer)

| Protein | binding result |
| --- | --- |
| DHR76 (designed helical repeat protein 76) (other) MNPELEEWIRRAKEVAKEVEKVAQRAEEEGNPDLRDSAKELRRAVEEAIEEAKKQGNPELVEWVARAAKVAAEVIKVAIQAEKEGNRDLFRAALELVRAVIEAIEEAVKQGNPELVEWVARAAKVAAEVIKVAIQAEKEGNRDLFRAALELVRAVIEAIEEAVKQGNPELVERVARLAKKAAELIKRAIRAEKEGNRDERREALERVREVIERIEELVRQGGWLEHHHHHH | binds |
| DHR49 (designed helical repeat protein 49) (other) MDSEEEQERIRRILKEARKSGTEESLRQAIEDVAQLAKKSQDSEVLEEAIRVILRIAKESGSEEALRQAIRAVAEIAKEAQDSEVLEEAIRVILRIAKESGSEEALRQAIRAVAEIAKEAQDPRVLEEAIRVIRQIAEESGSEEARRQAERAEEEIRRRAQGWLEHHHHHH | binds |
